According to publication PMC3329491, “Insight on an Arginine Synthesis Metabolon from the Tetrameric Structure of Yeast Acetylglutamate Kinase” (PLoS ONE, 2012):

What was measured:
[1] = target: the molecule itself; assay: SEC; analytical size exclusion chromatography on Superdex 200 10/300, 24°C, 50 mM Hepes pH 7.5/0.25 M NaCl; elution volume against protein standards
[2] = target: the molecule itself; assay: crystal structure; truncated yNAGK, space group P212121, four subunits in the asymmetric unit; with NAG, with NAG and arginine, or ligand-free; grown at 4°C, 50 mM Na acetate pH 4.6, 0.2 M Na-malonate, 2% PEG-8K

B1: complete mature yeast N-acetyl-L-glutamate kinase (yNAGK), residues 58-513 (enzyme, Saccharomyces cerevisiae, UniProt Q01217 58-513, looked up)
chain: VSSTNGFSATRSTVIQLLNNISTKREVEQYLKYFTSVSQQQFAVIKVGGAIISDNLHELASCLAFLYHVGLYPIVLHGTGPQVNGRLEAQGIEPDYIDGIRITDEHTMAVVRKCFLEQNLKLVTALEQLGVRARPITSGVFTADYLDKDKYKLVGNIKSVTKEPIEASIKAGALPILTSLAETASGQMLNVNADVAAGELARVFEPLKIVYLNEKGGIINGSTGEKISMINLDEEYDDLMKQSWVKYGTKLKIREIKELLDYLPRSSSVAIINVQDLQKELFTDSGAGTMIRRGYKLVKRSSIGEFPSADALRKALQRDAGISSGKESVASYLRYLENSDFVSYADEPLEAVAIVKKDTNVPTLDKFVCSDAAWLNNVTDNVFNVLRRDFPALQWVVSENDANIAWHFDKSQGSYLKGGKVLFWYGIDDINTISELVENFVKSCDTASTLNSSASS
modifications: for crystallization only: surface-exposed lysine residues reductively dimethylated
notes: N-acetyl-L-glutamate kinase of Saccharomyces cerevisiae, made by processing of the polyprotein precursor encoded by ARG5,6 (Uniprot Q01217); Amplified from pYB3 and inserted into pTrc99a; Methylated protein is stated for crystal NAGK1; Nothing says that the protein of the size exclusion run was methylated; also called complete yNAGK; complete mature yNAGK; source: E. coli BL21 (DE3), purified …
stoichiometry N [1]: 4

B2: truncated yNAGK spanning residues 58 to 356 (AAK domain, lacking the C-terminal DUF619 domain) (domain or fragment, Saccharomyces cerevisiae, UniProt Q01217 58-356, looked up)
chain: VSSTNGFSATRSTVIQLLNNISTKREVEQYLKYFTSVSQQQFAVIKVGGAIISDNLHELASCLAFLYHVGLYPIVLHGTGPQVNGRLEAQGIEPDYIDGIRITDEHTMAVVRKCFLEQNLKLVTALEQLGVRARPITSGVFTADYLDKDKYKLVGNIKSVTKEPIEASIKAGALPILTSLAETASGQMLNVNADVAAGELARVFEPLKIVYLNEKGGIINGSTGEKISMINLDEEYDDLMKQSWVKYGTKLKIREIKELLDYLPRSSSVAIINVQDLQKELFTDSGAGTMIRRGYKLVK
notes: A Se-Met-substituted form was used for phasing only (not deposited); also called truncated AAK; yNAGK lacking its C-terminal domain; source: E. coli BL21 (DE3), purified (HisTrap); not shown: MGH6 His-tag, N-terminal, kept
stoichiometry N [2]: 4
